Reference: the supplement of paper PMC9732359
± gives the uncertainty stated by the source.

Assay: protein stability index of a GFP-peptide fusion (yeast GPS) (PSI 1-4); higher = more stable; sorted into four equal gates, so the index is relative within each strain
Conditions: doa10∆
In short: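 Peptides tiling yeast proteins in 17-residue segments were fused downstream of GFP, with Cherry expressed from the same plasmid. As a pooled library in yeast, mid-log cultures grown in leucine-free medium were sorted into four equal gates by GFP/Cherry fluorescence ratio. Gate plasmids were PCR-amplified and Illumina-sequenced, and barcodes linked reads to strains. Each peptide received a protein stability index equal to the sum of each gate's read frequency times its gate number.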

Sequence | protein stability index
KGGKGLGKGGAKRHRKI [HHF1] | 3.7 ± 0.22
KGLKENDVAVEKTGKSA [BRR2] | 3.03 ± 0.15
KGPAIDELSSKELVECH [NNF1] | 3.04 ± 0.055
KGRAYKRLLYTRRFVNV [RPS30A] | 2.38 ± 0.058
KGRNNESNNKKYPIFTG [YDL088C/ASM4] | 2.87 ± 0.064
KGTEASNDIIDKPYLLR [YDL116W/NUP84] | 3.33 ± 0.09
KIAGIEGHLAEIRAKEY [SRB2] | 3.36 ± 0.12
KIALMNIPKPLNSYHIK [RGR1] | 1.65 ± 0.033
KIAYRGVKDCQEGLITT [SSN2] | 2.08 ± 0.23
KIDLLSGQFYFRNPTPL [RGR1] | 2.67 ± 0.22
KIEGVATPQDAQFYLGK [RPL33A] | 2.78 ± 0.086
KIKDVQQQIESNEEQRN [SMC3] | 3.22 ± 0.091
KIKQYERLRFYKDTFTL [RRI1] | 2.78 ± 0.056
KILGKGRIPNVPVIVKA [RPL28] | 2.35 ± 0.065
KILITYGSSPKLLATST [SRB8] | 1.22 ± 0.039
KILMYQYNIPPEREVLV [RRP6] | 1.78 ± 0.075
KILNIIKCSQSSHLSDN [POP5] | 1.97 ± 0.05
KILNLEKPLILADYIVE [NUT1] | 1.58 ± 0.1
KIMQSISNKDVIFKIRD [SRB4] | 3.34 ± 0.1
KIMVAEWYLSHLCSGIL [SRB8] | 1.35 ± 0.056
KINDESSIDKKSSILTV [YML103C/NUP188] | 2.35 ± 0.062
KINTRGAEDPKVLINDQ [SWI1] | 3.02 ± 0.2
KISDDELERILKELSNL [RPB4] | 3.16 ± 0.13
KIVFILDSDSENDLSFA [RRI2] | 2.52 ± 0.059
KIYNFGELLHHPIMETI [RPN9] | 2.58 ± 0.068

Sequence | protein stability index
KIYRVGKGDDEANGATS [RPL3] | 3.45 ± 0.071
KKAKLVLIANDVDPIEL [RPL8A] | 3.17 ± 0.15
KKALKVRTSATFRLPKT [RPL25] | 2.87 ± 0.13
KKEATKPAFSFGINTNT [YLR335W/NUP2] | 2.99 ± 0.062
KKFATVPTGGASSAAAG [RPP2B] | 3.17 ± 0.13
KKHGKTDYFLPKNYSLH [YJL039C/NUP192] | 2.76 ± 0.057
KKIENTMLENITLRGVE [RPO21] | 3.38 ± 0.12
KKKRKKKNKSAIDGIFG [RMP1] | 2.47 ± 0.045
KKKTKKELELERKERED [SWI1] | 3.62 ± 0.12
KKLESQESLVKLFTTNE [RPN5] | 2.94 ± 0.11
KKLLEVHDIFSKIFNES [CDC53] | 2.84 ± 0.072
KKMMNTSDSESTLYKYL [SWI3] | 2.94 ± 0.079
KKNDMNTSAKNKNGENK [SIR4] | 2.59 ± 0.06
KKNLGRLTRLWIKNEQE [PRP8] | 1.72 ± 0.063
KKNNLEFGTYGKYVIAG [RPN14] | 2.51 ± 0.088
KKRESGVEEEEELKDSE [SNF2] | 3.38 ± 0.28
KKRIRLPSEERIQKIIS [YIL149C/MLP2] | 2.66 ± 0.074
KKTVAGGAYTVSTAAAA [RPL43A] | 2.43 ± 0.068
KKVKSASKKSGGDVVKF [SMC4] | 3.09 ± 0.15
KKVMPAIVVRQAKSWRR [RPL23A] | 2.84 ± 0.14
KKVSRRNARAARAAKIA [RPL13B] | 3.05 ± 0.084
KKVTAFVPNDGCLNFVD [RPS23A] | 2.88 ± 0.054
KKWPQFYAAVQKNYADP [SIN4] | 1.5 ± 0.07
KLDASKKQQAALTNELN [YIL149C/MLP2] | 2.79 ± 0.069
KLDSKKILPTDIQLKNL [SRP68] | 2.74 ± 0.1

Sequence | protein stability index
KLIAAAEDGSRSTKDMI [SNF6] | 3.54 ± 0.15
KLILHAIHIFESYYNWK [YML103C/NUP188] | 1.57 ± 0.082
KLKGLMKLNILDERFAS [IRR1] | 2.29 ± 0.13
KLKLLRMERIKDHLLLE [RPT2] | 2.27 ± 0.079
KLKQQSSTDIPSYTHVL [RRI1] | 2.29 ± 0.034
KLKRNSDRREHDEKLSD [LIN1] | 3.51 ± 0.23
KLLKQPKFDVGALMALH [RPS1A] | 1.9 ± 0.056
KLLKSLLLNYLELIGVL [MED7] | 1.86 ± 0.052
KLLQLFLTPMDSIDLAP [YML103C/NUP188] | 1.9 ± 0.071
KLNTLSEILSFDPVYTT [YML103C/NUP188] | 2.54 ± 0.061
KLNVVGWFHSHPGYDCW [RRI1] | 2.59 ± 0.095
KMENFEFLPLSLHILMI [SRB8] | 2.79 ± 0.077
KMKIQETISKLNEYKRE [SMC2] | 1.3 ± 0.065
KMVAKGLNDLVEQYKFR [BRR2] | 3.35 ± 0.12
KMVGLRGFNNQIMQLKK [SNF2] | 3.35 ± 0.063
KNEKLILEESLNAIILK [SMC3] | 2.74 ± 0.075
KNEPDYSKAKYPDLQPF [CDC53] | 2.35 ± 0.086
KNGAQDLVLQILEDTAT [RRI2] | 3.37 ± 0.08
KNGTIVKKAVTVHSKSR [RPL19A] | 2.44 ± 0.068
KNINIGKHSQEQNSSSA [SIR4] | 3 ± 0.072
KNKDSLVSNPHEIYGSM [SRB4] | 3.04 ± 0.084
KNMPVIYNNIVSNIEGI [RGR1] | 2.43 ± 0.055
KNRSNRKRFHSQSKGTV [YOR098C/NUP1] | 3.21 ± 0.18
KNSFQQALQMKAMDIPI [SWP82] | 1.29 ± 0.035
KPENKTDKVSLSQPVSA [SIR4] | 2.81 ± 0.055

Same assay, conditions: pdr5∆

Sequence | protein stability index
KGGKGLGKGGAKRHRKI [HHF1] | 3.59 ± 0.19
KGPAIDELSSKELVECH [NNF1] | 3.13 ± 0.068
KGRAYKRLLYTRRFVNV [RPS30A] | 2.12 ± 0.064
KGRNNESNNKKYPIFTG [YDL088C/ASM4] | 2.95 ± 0.063
KGTEASNDIIDKPYLLR [YDL116W/NUP84] | 3.23 ± 0.078
KIAGIEGHLAEIRAKEY [SRB2] | 3.41 ± 0.097
KIALMNIPKPLNSYHIK [RGR1] | 1.81 ± 0.028
KIDLLSGQFYFRNPTPL [RGR1] | 3.03 ± 0.15
KIEGVATPQDAQFYLGK [RPL33A] | 3.12 ± 0.07
KIKDVQQQIESNEEQRN [SMC3] | 3.17 ± 0.082
KIKQYERLRFYKDTFTL [RRI1] | 2.54 ± 0.055
KILGKGRIPNVPVIVKA [RPL28] | 1.87 ± 0.081
KILITYGSSPKLLATST [SRB8] | 1.33 ± 0.039
KILMYQYNIPPEREVLV [RRP6] | 2.04 ± 0.077
KILNIIKCSQSSHLSDN [POP5] | 2.77 ± 0.069
KILNLEKPLILADYIVE [NUT1] | 1.56 ± 0.061
KIMQSISNKDVIFKIRD [SRB4] | 2.91 ± 0.15
KIMVAEWYLSHLCSGIL [SRB8] | 1.39 ± 0.057
KINDESSIDKKSSILTV [YML103C/NUP188] | 2.68 ± 0.067
KINRPPVSVSRIARALK [RPL18A] | 2.06 ± 0.1
KINTRGAEDPKVLINDQ [SWI1] | 3.34 ± 0.13
KIQFILEQMELSILKGD [RPN5] | 2.57 ± 0.23
KISDDELERILKELSNL [RPB4] | 3.17 ± 0.091
KIVFILDSDSENDLSFA [RRI2] | 2.61 ± 0.059
KIYNFGELLHHPIMETI [RPN9] | 2.6 ± 0.074

Sequence | protein stability index
KIYRVGKGDDEANGATS [RPL3] | 3.6 ± 0.1
KKAKLVLIANDVDPIEL [RPL8A] | 2.81 ± 0.068
KKEATKPAFSFGINTNT [YLR335W/NUP2] | 3.02 ± 0.086
KKFATVPTGGASSAAAG [RPP2B] | 3.21 ± 0.14
KKHGKTDYFLPKNYSLH [YJL039C/NUP192] | 2.63 ± 0.069
KKIENTMLENITLRGVE [RPO21] | 2.79 ± 0.12
KKKRKKKNKSAIDGIFG [RMP1] | 2.83 ± 0.045
KKKTKKELELERKERED [SWI1] | 3.37 ± 0.073
KKLESQESLVKLFTTNE [RPN5] | 3.12 ± 0.13
KKLLEVHDIFSKIFNES [CDC53] | 2.71 ± 0.059
KKMMNTSDSESTLYKYL [SWI3] | 2.87 ± 0.075
KKNDMNTSAKNKNGENK [SIR4] | 2.69 ± 0.061
KKNLGRLTRLWIKNEQE [PRP8] | 1.89 ± 0.063
KKNNLEFGTYGKYVIAG [RPN14] | 2.09 ± 0.069
KKRIRLPSEERIQKIIS [YIL149C/MLP2] | 2.49 ± 0.062
KKTVAGGAYTVSTAAAA [RPL43A] | 2.46 ± 0.065
KKVKSASKKSGGDVVKF [SMC4] | 3.68 ± 0.15
KKVMPAIVVRQAKSWRR [RPL23A] | 2.85 ± 0.088
KKVSRRNARAARAAKIA [RPL13B] | 2.65 ± 0.11
KKVTAFVPNDGCLNFVD [RPS23A] | 3.17 ± 0.046
KKWPQFYAAVQKNYADP [SIN4] | 2.09 ± 0.084
KLDASKKQQAALTNELN [YIL149C/MLP2] | 2.99 ± 0.075
KLDSKKILPTDIQLKNL [SRP68] | 2.78 ± 0.078
KLIAAAEDGSRSTKDMI [SNF6] | 3.69 ± 0.23
KLILHAIHIFESYYNWK [YML103C/NUP188] | 1.45 ± 0.07

Sequence | protein stability index
KLKGLMKLNILDERFAS [IRR1] | 2.75 ± 0.083
KLKLLRMERIKDHLLLE [RPT2] | 2.05 ± 0.064
KLKQQSSTDIPSYTHVL [RRI1] | 2.48 ± 0.04
KLKRNSDRREHDEKLSD [LIN1] | 2.49 ± 0.16
KLLKQPKFDVGALMALH [RPS1A] | 2.16 ± 0.083
KLLKSLLLNYLELIGVL [MED7] | 1.56 ± 0.052
KLLQLFLTPMDSIDLAP [YML103C/NUP188] | 1.54 ± 0.062
KLNTLSEILSFDPVYTT [YML103C/NUP188] | 2.77 ± 0.067
KLNVVGWFHSHPGYDCW [RRI1] | 2.38 ± 0.099
KLRGDLREAPADYWTHA [SNF6] | 3 ± 0.27
KMENFEFLPLSLHILMI [SRB8] | 2.8 ± 0.054
KMKIQETISKLNEYKRE [SMC2] | 1.48 ± 0.051
KMVAKGLNDLVEQYKFR [BRR2] | 3.17 ± 0.12
KMVGLRGFNNQIMQLKK [SNF2] | 3.21 ± 0.073
KNEKLILEESLNAIILK [SMC3] | 2.64 ± 0.087
KNEPDYSKAKYPDLQPF [CDC53] | 2.58 ± 0.089
KNGAQDLVLQILEDTAT [RRI2] | 3.3 ± 0.095
KNGTIVKKAVTVHSKSR [RPL19A] | 2.8 ± 0.068
KNINIGKHSQEQNSSSA [SIR4] | 3.13 ± 0.082
KNKDSLVSNPHEIYGSM [SRB4] | 3.09 ± 0.09
KNMPVIYNNIVSNIEGI [RGR1] | 2.69 ± 0.066
KNRSNRKRFHSQSKGTV [YOR098C/NUP1] | 3.11 ± 0.18
KNSFQQALQMKAMDIPI [SWP82] | 1.55 ± 0.055
KPENKTDKVSLSQPVSA [SIR4] | 2.68 ± 0.052

Same assay, conditions: san1∆

Sequence | protein stability index
KGGKGLGKGGAKRHRKI [HHF1] | 3.65 ± 0.067
